# According to paper PMC5854672, “Solution structure of extracellular loop of human β4 subunit of BK channel and its biological implication on ChTX sensitivity” (Scientific Reports, 2018):
# B1: Charybdotoxin (peptide)
# chain: QFTNVSCTTSKECWSVCQRLHNTSRGKCMNKKCRCYS
# notes: charybdotoxin (ChTX), scorpion toxin; also called ChTX; source: bought: Sigma-Aldrich (Art. No. C7802)
# Key:
# mSlo1/β4(N123E) channel [1] = target: T1, mSlo1/β4(N123E) channel (mouse | human, UniProt Q08460 1-1209; Q86W47 1-210, N123E); assay: patch-clamp electrophysiology (time course of current block); outside-out patches of transfected HEK293 cells perfused with 1 μM ChTX; steps to +100 mV, intracellular 10 μM Ca2+; τon and τoff fitted to a first order bimolecular reaction scheme; KD = [ChTX]/((τoff/τon) − 1); conditions: one partner purified
# T1 construct: mSlo1, BK channel α subunit (KCNMA1) of mouse, full-length cDNA, GenBank HQ221747.1; human BK channel β4 subunit (KCNMB4), full-length cDNA, GenBank AF207992.1; source: HEK293, transiently co-transfected (pcDNA3.1(+)), in excised membrane patches; copies: 4 + 4
# mSlo1/β4(N123I) channel = target: T2, mSlo1/β4(N123I) channel (mouse | human, UniProt Q08460 1-1209; Q86W47 1-210, N123I); assay: as above; conditions: one partner purified
# T2 construct: mSlo1, BK channel α subunit (KCNMA1) of mouse, full-length cDNA, GenBank HQ221747.1; human BK channel β4 subunit (KCNMB4), full-length cDNA, GenBank AF207992.1; source: HEK293, transiently co-transfected (pcDNA3.1(+)), in excised membrane patches; copies: 4 + 4
# mSlo1/β4(N123L) channel = target: T3, mSlo1/β4(N123L) channel (mouse | human, UniProt Q08460 1-1209; Q86W47 1-210, N123L); assay: as above; conditions: one partner purified
# T3 construct: mSlo1, BK channel α subunit (KCNMA1) of mouse, full-length cDNA, GenBank HQ221747.1; human BK channel β4 subunit (KCNMB4), full-length cDNA, GenBank AF207992.1; source: HEK293, transiently co-transfected (pcDNA3.1(+)), in excised membrane patches; copies: 4 + 4
# mSlo1/β4(N123R) channel [2] = target: T4, mSlo1/β4(N123R) channel (mouse | human, UniProt Q08460 1-1209; Q86W47 1-210, N123R); assay: as above; conditions: one partner purified
# T4 construct: mSlo1, BK channel α subunit (KCNMA1) of mouse, full-length cDNA, GenBank HQ221747.1; human BK channel β4 subunit (KCNMB4), full-length cDNA, GenBank AF207992.1; source: HEK293, transiently co-transfected (pcDNA3.1(+)), in excised membrane patches; copies: 4 + 4
# mSlo1/β4(N123A) channel [3] = target: T5, mSlo1/β4(N123A) channel (mouse | human, UniProt Q08460 1-1209; Q86W47 1-210, N123A); assay: as above; conditions: one partner purified
# T5 construct: mSlo1, BK channel α subunit (KCNMA1) of mouse, full-length cDNA, GenBank HQ221747.1; human BK channel β4 subunit (KCNMB4), full-length cDNA, GenBank AF207992.1; source: HEK293, transiently co-transfected (pcDNA3.1(+)), in excised membrane patches; copies: 4 + 4
# mSlo1/β4 channel [4] = target: T6, mSlo1/β4 channel (mouse | human, UniProt Q08460 1-1209; Q86W47 1-210); assay: as above; conditions: one partner purified
# T6 construct: mSlo1, BK channel α subunit (KCNMA1) of mouse, full-length cDNA, GenBank HQ221747.1; human BK channel β4 subunit (KCNMB4), full-length cDNA, GenBank AF207992.1; also called BKα/β4; source: HEK293, transiently co-transfected (pcDNA3.1(+)), in excised membrane patches; copies: 4 + 4
# mSlo1/β4(N123K) channel [5] = target: T7, mSlo1/β4(N123K) channel (mouse | human, UniProt Q08460 1-1209; Q86W47 1-210, N123K); assay: as above; conditions: one partner purified
# T7 construct: mSlo1, BK channel α subunit (KCNMA1) of mouse, full-length cDNA, GenBank HQ221747.1; human BK channel β4 subunit (KCNMB4), full-length cDNA, GenBank AF207992.1; source: HEK293, transiently co-transfected (pcDNA3.1(+)), in excised membrane patches; copies: 4 + 4
# mSlo1/β4(H101Y) channel = target: T8, mSlo1/β4(H101Y) channel (mouse | human, UniProt Q08460 1-1209; Q86W47 1-210, H101Y); assay: as above; conditions: one partner purified
# T8 construct: mSlo1, BK channel α subunit (KCNMA1) of mouse, full-length cDNA, GenBank HQ221747.1; human BK channel β4 subunit (KCNMB4), full-length cDNA, GenBank AF207992.1; source: HEK293, transiently co-transfected (pcDNA3.1(+)), in excised membrane patches; copies: 4 + 4
# [6] = target: T9, mSlo1 channel (BKα subunit of mouse, alone) (mouse, UniProt Q08460 1-1209); assay: as above; conditions: one partner purified
# T9 construct: mSlo1, BK channel α subunit (KCNMA1) of mouse, full-length cDNA, GenBank HQ221747.1; tetrameric Slo1; also called mSlo1 alone channel; source: HEK293, transiently transfected (pcDNA3.1(+)), in excised membrane patches
# mSlo1/β4(N123V) channel = target: T10, mSlo1/β4(N123V) channel (mouse | human, UniProt Q08460 1-1209; Q86W47 1-210, N123V); assay: as above; conditions: one partner purified
# T10 construct: mSlo1, BK channel α subunit (KCNMA1) of mouse, full-length cDNA, GenBank HQ221747.1; human BK channel β4 subunit (KCNMB4), full-length cDNA, GenBank AF207992.1; source: HEK293, transiently co-transfected (pcDNA3.1(+)), in excised membrane patches; copies: 4 + 4
# mSlo1/β4(N123F) channel = target: T11, mSlo1/β4(N123F) channel (mouse | human, UniProt Q08460 1-1209; Q86W47 1-210, N123F); assay: as above; conditions: one partner purified
# T11 construct: mSlo1, BK channel α subunit (KCNMA1) of mouse, full-length cDNA, GenBank HQ221747.1; human BK channel β4 subunit (KCNMB4), full-length cDNA, GenBank AF207992.1; source: HEK293, transiently co-transfected (pcDNA3.1(+)), in excised membrane patches; copies: 4 + 4
# mSlo1/β4(N123D) channel [7] = target: T12, mSlo1/β4(N123D) channel (mouse | human, UniProt Q08460 1-1209; Q86W47 1-210, N123D); assay: as above; conditions: one partner purified
# T12 construct: mSlo1, BK channel α subunit (KCNMA1) of mouse, full-length cDNA, GenBank HQ221747.1; human BK channel β4 subunit (KCNMB4), full-length cDNA, GenBank AF207992.1; source: HEK293, transiently co-transfected (pcDNA3.1(+)), in excised membrane patches; copies: 4 + 4
# mSlo1/β4(N123Y) channel = target: T13, mSlo1/β4(N123Y) channel (mouse | human, UniProt Q08460 1-1209; Q86W47 1-210, N123Y); assay: as above; conditions: one partner purified
# T13 construct: mSlo1, BK channel α subunit (KCNMA1) of mouse, full-length cDNA, GenBank HQ221747.1; human BK channel β4 subunit (KCNMB4), full-length cDNA, GenBank AF207992.1; source: HEK293, transiently co-transfected (pcDNA3.1(+)), in excised membrane patches; copies: 4 + 4
# mSlo1/β4(N123E) channel [8] = target: T1, mSlo1/β4(N123E) channel; assay: cell-based or functional assay
# mSlo1/β4(N123R) channel [9] = target: T4, mSlo1/β4(N123R) channel; assay: cell-based or functional assay
# mSlo1/β4(N123A) channel [10] = target: T5, mSlo1/β4(N123A) channel; assay: cell-based or functional assay
# mSlo1/β4 channel [11] = target: T6, mSlo1/β4 channel; assay: cell-based or functional assay
# mSlo1/β4(N123K) channel [12] = target: T7, mSlo1/β4(N123K) channel; assay: cell-based or functional assay
# mSlo1/β4(N123D) channel [13] = target: T12, mSlo1/β4(N123D) channel; assay: cell-based or functional assay
# T12 sequence (Q08460 whole entry, stated change not applied, one chain of several): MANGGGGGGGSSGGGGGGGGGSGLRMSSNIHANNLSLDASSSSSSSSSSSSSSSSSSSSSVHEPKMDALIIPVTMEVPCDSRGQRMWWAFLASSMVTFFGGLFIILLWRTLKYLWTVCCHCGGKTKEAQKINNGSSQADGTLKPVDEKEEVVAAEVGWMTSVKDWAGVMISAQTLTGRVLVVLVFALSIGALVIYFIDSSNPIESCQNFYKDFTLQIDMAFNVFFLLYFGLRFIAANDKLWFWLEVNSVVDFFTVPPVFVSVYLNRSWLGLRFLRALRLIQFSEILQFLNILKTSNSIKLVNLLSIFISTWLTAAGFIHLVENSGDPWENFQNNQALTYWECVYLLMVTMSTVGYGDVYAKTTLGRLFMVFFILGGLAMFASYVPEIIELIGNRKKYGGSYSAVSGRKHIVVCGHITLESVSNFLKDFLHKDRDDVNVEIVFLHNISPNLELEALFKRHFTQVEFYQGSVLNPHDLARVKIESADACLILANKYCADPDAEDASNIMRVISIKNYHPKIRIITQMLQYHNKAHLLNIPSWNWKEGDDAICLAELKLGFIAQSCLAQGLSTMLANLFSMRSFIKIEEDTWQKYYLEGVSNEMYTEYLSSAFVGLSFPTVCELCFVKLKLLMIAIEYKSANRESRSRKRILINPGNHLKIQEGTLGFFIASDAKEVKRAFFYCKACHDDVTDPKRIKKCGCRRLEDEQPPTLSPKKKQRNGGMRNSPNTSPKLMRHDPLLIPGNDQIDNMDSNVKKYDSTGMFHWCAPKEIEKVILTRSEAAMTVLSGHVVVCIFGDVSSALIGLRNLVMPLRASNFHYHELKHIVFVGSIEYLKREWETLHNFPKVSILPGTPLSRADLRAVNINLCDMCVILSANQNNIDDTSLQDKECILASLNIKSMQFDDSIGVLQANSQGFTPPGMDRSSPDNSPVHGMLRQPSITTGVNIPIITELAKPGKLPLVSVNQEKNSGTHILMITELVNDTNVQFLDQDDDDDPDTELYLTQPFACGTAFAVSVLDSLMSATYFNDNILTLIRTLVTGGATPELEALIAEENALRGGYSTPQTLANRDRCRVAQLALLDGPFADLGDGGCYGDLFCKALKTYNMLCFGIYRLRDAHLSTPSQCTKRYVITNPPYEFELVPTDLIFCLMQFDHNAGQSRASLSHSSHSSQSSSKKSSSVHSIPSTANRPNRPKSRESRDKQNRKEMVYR
# T1 sequence (Q08460 whole entry, stated change not applied, the tested form may be a part, one chain of several): as the sequence (Q08460 whole entry, stated change not applied, one chain of several) above
# T9 sequence (Q08460 whole entry): as the sequence (Q08460 whole entry, stated change not applied, one chain of several) above
# T6 sequence (Q08460 whole entry, one chain of several): as the sequence (Q08460 whole entry, stated change not applied, one chain of several) above
binder,measurement,setting,value
B1,Kd,mSlo1/β4(N123E) channel [1],80.8 nM
same,τoff,mSlo1/β4(N123E) channel [1],138 s
same,τon (block at 1 μM ChTX),mSlo1/β4(N123E) channel [1],10.3 s
same,Kd,mSlo1/β4(N123I) channel,119 nM
same,τoff,mSlo1/β4(N123I) channel,38.5 s
same,τon (block at 1 μM ChTX),mSlo1/β4(N123I) channel,4.1 s
same,Kd,mSlo1/β4(N123L) channel,41.9 nM
same,τoff,mSlo1/β4(N123L) channel,171 s
same,τon (block at 1 μM ChTX),mSlo1/β4(N123L) channel,6.9 s
same,Kd,mSlo1/β4(N123R) channel [2],329 nM
same,τoff,mSlo1/β4(N123R) channel [2],85.3 s
same,τon (block at 1 μM ChTX),mSlo1/β4(N123R) channel [2],21.1 s
same,Kd,mSlo1/β4(N123A) channel [3],96.8 nM
same,τoff,mSlo1/β4(N123A) channel [3],816 s
same,τon (block at 1 μM ChTX),mSlo1/β4(N123A) channel [3],72 s
same,τon (block at 1 μM ChTX),mSlo1/β4 channel [4],60.9 s
same,Kd,mSlo1/β4(N123K) channel [5],44.3 nM
same,τoff,mSlo1/β4(N123K) channel [5],314 s
same,τon (block at 1 μM ChTX),mSlo1/β4(N123K) channel [5],13.3 s
same,Kd,mSlo1/β4(H101Y) channel,325 nM
same,τoff,mSlo1/β4(H101Y) channel,32.6 s
same,τon (block at 1 μM ChTX),mSlo1/β4(H101Y) channel,8 s
same,Kd,[6],193 nM
same,τoff,[6],21.6 s
same,τon (block at 1 μM ChTX),[6],3.5 s
same,Kd,mSlo1/β4(N123V) channel,61.8 nM
same,τoff,mSlo1/β4(N123V) channel,53.3 s
same,τon (block at 1 μM ChTX),mSlo1/β4(N123V) channel,3.1 s
same,Kd,mSlo1/β4(N123F) channel,47.1 nM
same,τoff,mSlo1/β4(N123F) channel,670 s
same,τon (block at 1 μM ChTX),mSlo1/β4(N123F) channel,30.1 s
same,Kd,mSlo1/β4(N123D) channel [7],72.6 nM
same,τoff,mSlo1/β4(N123D) channel [7],624 s
same,τon (block at 1 μM ChTX),mSlo1/β4(N123D) channel [7],42.2 s
same,Kd,mSlo1/β4(N123Y) channel,291 nM
same,τoff,mSlo1/β4(N123Y) channel,26.2 s
same,τon (block at 1 μM ChTX),mSlo1/β4(N123Y) channel,5.9 s
same,"inhibition of channel currents by 1 μM ChTX (outside-out patches, HEK293)",mSlo1/β4(N123E) channel [8],96%
same,"inhibition of channel currents by 1 μM ChTX (outside-out patches, HEK293)",mSlo1/β4(N123R) channel [9],36.4%
same,"inhibition of channel currents by 1 μM ChTX (outside-out patches, HEK293)",mSlo1/β4(N123A) channel [10],~90%
same,"inhibition of channel currents by 1 μM ChTX (outside-out patches, HEK293)",mSlo1/β4 channel [11],22.2%
same,"inhibition of channel currents by 1 μM ChTX (outside-out patches, HEK293)",mSlo1/β4(N123K) channel [12],89.1%
same,"inhibition of channel currents by 1 μM ChTX (outside-out patches, HEK293)",mSlo1/β4(N123D) channel [13],46.9%
